Source: FireProtDB (doi:10.3390/ijms21030752)

Details: Homo sapiens, pH 7.5, Thermal, CD, Tris-HCl 20mM, whole UniProt chain shown

B1: Guanylyl cyclase-activating protein 1 wild type, P43080 (protein)
chain: MGNVMEGKSVEELSSTECHQWYKKFMTECPSGQLTLYEFRQFFGLKNLSPSASQYVEQMFETFDFNKDGYIDFMEYVAALSLVLKGKVEQKLRWYFKLYDVDGNGCIDRDELLTIIQAIRAINPCSDTTMTAEEFTDTVFSKIDVNGDGELSLEEFIEGVQKDQMLLDTLTRSLDLTRIVRRLQNGEQDEEGADEAAEAAG
KCL 150 mM
  Tm: 49.8 °C
KCL and Mg2+ 150 mM and 1 mM
  Tm: 50.3 °C
